Data on 17 sequences can be found in a protein production outcome set (Wang et al. 2014).

This data set in a line: label from the status in PepcDB records.
“MIIKPAGDSAFLISFGDEISEEINDRVHSLAKAIEKESPEWLVELVPAYSSLLVIYDPLKASYEEVESYLKRISAREVERIKGKTIEIPVAYGGEFGPDIEFVAQYNGLSVDDVIEIHSKPLYRVYFLGFLPGFAYLGGMDERIATPRLEKPRLKVPAGSVGIAGKQTGWYAIESPGGWRIIGRIPLRTFNPGKVPPSIVLPGDYVKFVPIDEKEFWEIYGREWE”: the protein production result is on record as “not failed”.

Regarding “SLSSTELGDLFWSWLRDGLREGDIPVNTADACVHLTCGFVFISVPGVFFLFLKSHSRSCSSGLKESGRKEQVQAAFEKMRKHRVSDSRRFWQCCLYEEPGGRGRYKKLTGYLIKMSEIYANGNFPDDSLFLKVIN”, the protein production result was “not failed”.

In the case of “MKLGKTLAISCISMLSLSIWTQQVSAASAFDPSSEWMLGDWNGERTALKQKGYDFSIGYTGEMATVLDSKDTSRHGTEYAGQVALGTHFDLNKILGWQDTEAQITLTHRDGHDIKNKAAALEGQLSSTQEVYGRGQTTRLTDLWIKKKFFDQALDIKVGRFGESEDFNPAACDFQNLALCGDQMGNWNAGDQIHNWPVSQWAARVKYNVTPEVFAQVGVYEYNPENLKRSKGFNLSTDGSKGAVIPVEVVWQPKSGLINGLAGEYRAGYYYSTADANEINSTNKDHGQGGWLSFIQQLTAVNGDTSRGLKVVGQATFFDEATSRVKNTQSLAFAYKGLVDTRPKDELAIGFSRINLNDDAYLGKDVDSEYNSEIYYGIEATNWLTVRPNVQYVRHVGALKDGNNAWVGGIKFQTVF”, the protein production result is “failed”.

Regarding “MPFKEYDHDFIDKNKKASSSVRLALLLSVLIIIFNLLFFKHRDFQEQLHNNPGSYTDLIALVFLFFILSCTSKISLNHTSALSIRLGLHVWICSATFDFMDEFIYQPKLVGYYVEDMLRIIGMFGVGFGVYTLIQQINNKYVEARIQSFSDELTQLPNRRFFINELKKLEAKTPYLFIIDIDNFKVINDKYGHTKGDEILSKFGHILSRFDNSEVVATRIGGEEFAIILYAGTQDRAEKLAREVLKNANKIIIKNMHHLSVSIGAGKKQPQEPTEHFMKRVDVALYQAKNTGKGKVEWALEPKEKTQ”, the protein production entry is given as “failed”.

Take “MEAETKTLPLENASILSEGSLQEGHRLWIGNLDPKITEYHLLKLLQKFGKVKQFDFLFHKSGALEGQPRGYCFVNFETKQEAEQAIQCLNGKLALSKKLVVRWAHAQVKRYDHNKNDKILPISLEPSSSTEPTQSNLSVTAKIKAIEAKLKMMAENPDAEYPAAPVYSYFKPPDKKRTTPYSRTAWKSRR”: the protein production entry was “failed”.

For the sequence “MNATLIDCCDPQKPSRVLFHFLILDAPSPSNLPTYIKELQHRGVRHLVRVCGPTYDATLVKSRGIDVHSWPFDDGAPPTRAVLDSWLKLLDTELARQQEDPSVPPPTIGVHCVAGLGRAPILVALALVEYGNVSALDAIALIREKRKGAINQTQMHWITKYKR”, the protein production result is “not failed”.

In the case of “MNREKLMKMANTVRTGGKGTVRRKKKAVHKTNTTDDKRLQSTLKRIGVNSIPAIEEVNIFKDDVVIQFINPKVQASIAANTWVVSGSPQTKKLQDILPQIISQLGPDNMDNLKKLAEQFQKQASGEGNAASATIQEEDDDDVPELVGETFETAAEEKAPAAAASS”, the protein production result is on record as “failed”.

For the sequence “MFAMLHVIVDTNWLLLAFSALMFDLPRYTFSLLSWSLVGIFRNSRPGDRWVEAAVSVIIPTFNGGSGLAPTIASLRQQTLSPLEIIIVDDGSTDDTRAVANRARQDGLVDMVICHGTRCGRSAAINAAARFASGDLIFTIDADTVLERDAIARLAHAFNDPRVAGACGNIAIRNESASLWTGLQSVEYMMSISAGKSILDVVGAIACLSGACSMYRRDVFARQGGLDVGPGEDLEFSLRLRRLGYRVRFVPDAWAETDGPVAAVGLLRQRARWDRDALRIRSMMYGELSFFHPLERLPDTLQRLDFIVFDLIPTMSLPFYSMYIVILFGPAHAILFIGAIYFLLLWISLFNMALAFVLFSRSPSFFSLGAAFIFPFYQGIYMKCARFVSYSSEILFATSRRDDYVPPRVRRALFADEVGKVVS”, the protein production entry is given as “failed”.

In the case of “ECPAVVAVVARGSEQNLQIRPARYSEESPWTSNGFEEKNFRSFFGRMEKHYRESTGESLMKDVYVMGLNNIEYPASLPLSSEGSSAIELGTSISSGRDNVISAIDRFESATGCTPKYLLAGYSQGVLIVDGYEEELIARDQYLGTLHIANPAQQVDDPTLVGHEVTTGGLASSVEPVEDNPFKVSYCLPGDIVCDRSFEQFSAAGSSIAAAQLSTGNIRPGRVHVQYFVTTQPWDEQIFDEVASWIEAA”, the protein production entry is reported as “failed”.

Consider “LTTAGYYAAVDWGTSSFRLWIIGEDGAVLAERRSAEGMTTAAKTGFHTILDGHLAAVSAPAHLPIIICGMAGARQGWKEAGYIETPAALAEIAGRATAIPDVDRDIRILPGLAQRDRRHPDVMRGEETQLLGAAAHLGAGSHLVCMPGTHSKWVRLADDRVEGFSTFMTGELFDTIARHTILSHAVAEADTFAAGSAAFTDAVSRTRENPALATNLLFSVRAGQLLHGTAAADARAQLSGTLIGLEIAGALAGSGSVDGVCLVGSGGLGTLYRTALESQGLNVRAVDADEAVRAGLSAAARAIWPL”, for which the protein production entry is given as “not failed”.

For the sequence “YAVQICKGMDYLGSRQYVHRDLAARNVLVESEHQVKIGDFGLTKAIETDKEYYTVKDDRDSPVFWYAPECLMQSKFYIASDVWSFGVTLHELLTYCDSDSSPMALFLKMIGPTHGQMTVTRLVNTLKEGKRLPCPPNCPDEVYQLMRKCWEFQPSNRTSFQNLIEGFEALLK”, the protein production result is on record as “failed”.

For the sequence “MVMARNRNSNQLASHGAQAALDQMKYEIAQEFGVQLGADTSSRANGSVGGEITKRLVAMAEQQLGGGYTRLEHHHHHH”, the protein production result is on record as “not failed”.

Regarding “MKFVKIALIIAVIALVLFAAKQTGVLEIITDIKSLQEWIAGFGAWGYIVFVAAFVFACVFLLPGSAFTIVAGIVFGPIKGGVLALFSATLGAVVAFIVARFLLRNTIMKKFGDNPIFKKIDDGVAKNGTSFLILTRLVPVFPFSLQNYAYGLTGLNLSTYALVSLITMAPGAFIFAYMAGDIATNGVSAMLLVKFAVAGLILFGMSLIPKYIAKKKGINMEELAK”, the protein production result is “not failed”.

Consider “MFLKKKLSAGKSVVGTMLNLVYNPDIVRIYAEAGLDYFIVDCEHAAYTFREINHLVSVAKNAGVSVLVRIPQVDRAHVQRLLDIGAEGFMIPGVQSAETMRETVRLAKYPPLGERGVGGSIVTDFKPVNWAEWVQERNDEIFIMAQIEHVKAVEDIDSILAVQGVDAVIFGPRDLSNDLGIIGQTEHPKVYECYEKVYRAADRQGVVKGFFTAADAAKMGWAVERGAQMLLWSGDVAALQTYTAKGVKTIKELPGFNP”, for which the protein production entry is “not failed”.

As for “MARPAYRLLAYSLWDLIPIAMAVAHFAFVLWLVLDFHALSWWVILPAALLYAVSLSWSINSISHNQIHNAYFTPGWMNRGFDLLLSVTIGFSQTLYRDIHNRHHRGNSDLPDANGKTVDPLSIYLHGKDGQPDNPWAYTFLSFFRDDPKEIYQEMQRKRPDDARWVKVEIGVTVAFYLALALYDWHAVLVLLPFWYLGQSLSSLNGYYEHLGGNPDLPIAWGVSSYSPLYNLIWMNNGYHAEHHYRPKMHWTKVKAFHREIREQQRAAGVKVIPVSHGLGFLVAHRKV”, the protein production result is on record as “failed”.

Take “MYIPKYFKVTNAEEIWNFVQENSFGTVVTTEQGKPIATHLPLGFNKKDDHYYITGHFAYGNPQWRTFEACEDVLVMFQGPHAYISSSWYSRENVPTWNYQAVHMYGKASMLEKDELAEELTIMLEQKTPTQAFSVLWDKLSPKLLESELKGIVGFKIKVEDIQAAYKLSQN”: the protein production entry is “failed”.

On to “MRHISPEELIALHDANISRYGGLPGMSDPGRAEAIIGRVQARVAYEEITDLFEVSATYLVATARGHIFNDANKRTALNSALLFLRRNGVQVFDSPELADLTVGAATGEISVSSVADTLRRLYGSAELEHHHHHH”, for which the protein production entry was “not failed”.
